Assay results reported in US20220195054A1 (BERGEN TEKNOLOGIOVERF RING, published 2022).
Numbering of substitutions follows the chain as printed. Where “and” joins values, the source holds several entries; their conditions need not be identical. Equal values may be shown once.

What was measured:
[1] = target: recombinant human Axl-Fc chimera (rhAxl-Fc; R&D Systems, Cat. no. 154-AL) (human) (UniProt P30530); test: SPR two-injection competition on immobilised Axl-Fc; first injection
[2] = target: recombinant human Axl-Fc chimera (rhAxl-Fc; R&D Systems, Cat. no. 154-AL) (human) (UniProt P30530); test: SPR two-injection competition on immobilised Axl-Fc; second injection, competitor bound first: 10G5
[3] = target: recombinant human Axl-Fc chimera (rhAxl-Fc; R&D Systems, Cat. no. 154-AL) (human) (UniProt P30530); test: SPR two-injection competition on immobilised Axl-Fc; second injection, competitor bound first: YW327.6S2
[4] = target: recombinant human Axl-Fc chimera (rhAxl-Fc; R&D Systems, Cat. no. 154-AL) (human) (UniProt P30530); test: SPR two-injection competition on immobilised Axl-Fc; response expected for the second sample (first: 10G5)
[5] = target: recombinant human Axl-Fc chimera (rhAxl-Fc; R&D Systems, Cat. no. 154-AL) (human) (UniProt P30530); test: SPR two-injection competition on immobilised Axl-Fc; response expected for the second sample (first: YW327.6S2)
[6] = target: T1, recombinant human Axl-Fc chimera (rhAxl-Fc; R&D Systems, Cat. no. 154-AL) (human, UniProt P30530 26-451); test: SPR (Biacore 3000, 25 C), rhAxl-Fc immobilised; ln2/koff
T1 construct: Bought construct; also called rhAxi-Fc; Hu-Axl-Fc; Fc part of the bought chimera not given

[7] = target: T1, recombinant human Axl-Fc chimera …; test: SPR (Biacore), rhAxl immobilised; same values as Table 1
[8] = target: T1, recombinant human Axl-Fc chimera …; test: SPR (Biacore 3000, 25 C), rhAxl-Fc immobilised (190 RU), antibody as analyte, koff/kon
[9] = target: T1, recombinant human Axl-Fc chimera …; test: SPR (Biacore 3000, 25 C), rhAxl-Fc immobilised (190 RU), antibody as analyte, 1:1 Langmuir
[10] = target: T2, recombinant cyno-Axl-Fc (extracellular domain of Axl from Macaca fascicularis fused to human Fc) (cynomolgus monkey (Macaca fascicularis), UniProt P30530 26-451 (human entry)); test: Biacore 3000 SPR, cyno-Axl-Fc on a CM5 chip, antibody injected at 10 µg/mL for 3 min, 5 min dissociation [upper panel 10G5]
T2 construct: Made by transient expression in CHO cells; also called Axl from cynomolgus monkey; not shown: human Fc
T2 chain: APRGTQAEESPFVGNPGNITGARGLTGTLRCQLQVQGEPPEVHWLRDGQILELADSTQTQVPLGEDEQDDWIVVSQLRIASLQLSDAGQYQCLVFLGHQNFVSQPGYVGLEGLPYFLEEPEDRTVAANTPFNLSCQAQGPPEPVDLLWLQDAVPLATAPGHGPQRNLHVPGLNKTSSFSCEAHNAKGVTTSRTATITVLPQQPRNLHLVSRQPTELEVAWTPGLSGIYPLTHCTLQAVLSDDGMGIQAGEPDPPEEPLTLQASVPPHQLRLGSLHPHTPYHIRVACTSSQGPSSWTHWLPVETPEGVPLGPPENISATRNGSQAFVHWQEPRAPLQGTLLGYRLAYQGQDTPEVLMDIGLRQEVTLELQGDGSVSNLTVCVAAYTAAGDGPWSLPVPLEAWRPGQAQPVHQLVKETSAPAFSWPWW

[11] = target: T3, recombinant human Mer-Fc chimera (rhMer-Fc; R&D Systems, Cat no. 891-MR) (human, UniProt Q12866 21-505); test: Biacore 3000 SPR, rhMer-Fc on a CM5 chip, antibody injected for 3 min; concentration from Example 2, not printed on the sheet
T3 construct: Bought construct; Fc part of the bought chimera not given
T3 sequence: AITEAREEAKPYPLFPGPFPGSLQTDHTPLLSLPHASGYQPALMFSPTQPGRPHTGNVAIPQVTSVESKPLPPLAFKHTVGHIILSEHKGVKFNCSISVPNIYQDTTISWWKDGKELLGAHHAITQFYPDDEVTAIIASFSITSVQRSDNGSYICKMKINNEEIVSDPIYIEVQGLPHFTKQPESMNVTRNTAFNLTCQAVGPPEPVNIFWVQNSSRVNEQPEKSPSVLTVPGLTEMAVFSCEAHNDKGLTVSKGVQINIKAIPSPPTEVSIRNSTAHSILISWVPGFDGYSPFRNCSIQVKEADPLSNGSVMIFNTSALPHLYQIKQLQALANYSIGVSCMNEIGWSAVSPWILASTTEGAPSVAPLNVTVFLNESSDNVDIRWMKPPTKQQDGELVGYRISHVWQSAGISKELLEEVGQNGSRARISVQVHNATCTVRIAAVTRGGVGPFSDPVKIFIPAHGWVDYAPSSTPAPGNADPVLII

[12] = target: T4, recombinant human Tyro3/Dtk-Fc chimera (rhTyro3/Dtk-Fc; R&D Systems, Cat no. 859-DK) (human, UniProt Q06418 41-429); test: Biacore 3000 SPR, rhTyro3/Dtk-Fc on a CM5 chip, antibody injected for 3 min; concentration from Example 2, not printed on the sheet
T4 construct: Bought construct; Fc part of the bought chimera not given
T4 sequence: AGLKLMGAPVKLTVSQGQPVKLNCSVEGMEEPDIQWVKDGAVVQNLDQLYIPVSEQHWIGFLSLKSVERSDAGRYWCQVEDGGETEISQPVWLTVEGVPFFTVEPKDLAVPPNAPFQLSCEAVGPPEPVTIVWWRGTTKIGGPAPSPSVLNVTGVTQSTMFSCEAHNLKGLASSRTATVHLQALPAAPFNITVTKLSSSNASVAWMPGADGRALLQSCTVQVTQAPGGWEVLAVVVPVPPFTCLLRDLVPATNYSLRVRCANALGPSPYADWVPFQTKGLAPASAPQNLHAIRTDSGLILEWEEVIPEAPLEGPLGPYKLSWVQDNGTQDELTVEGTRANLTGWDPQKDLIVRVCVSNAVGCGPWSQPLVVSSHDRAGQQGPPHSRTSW

[13] = target: T5, human Axl receptor on cells (MDA-MB-231, HeLa, LX2, Axl-positive cells) (human, UniProt P30530 26-894); test: cell-based or functional assay
[14] = target: T5, human Axl receptor on cells …; test: cell-based or functional assay; remark: listed apart in the source
[15] = target: T1, recombinant human Axl-Fc chimera …; test: SPR (Biacore), rhAxl immobilised on the sensor chip
[16] = target: T1, recombinant human Axl-Fc chimera …; test: SPR (Biacore), rhAxl immobilised on the sensor chip, antibody as analyte
[17] = target: T5, human Axl receptor on cells …; test: flow cytometry on MDA-MB-231 cells, APC-conjugated anti-human IgG F(ab')2 detection
[18] = target: T5, human Axl receptor on cells …; test: flow cytometry titration on MDA-MB-231 cells, Kd of the fitted curve, the axis of the fitted curves is Conc. (nM) [table under the graph]
[19] = target: recombinant human Axl-Fc chimera (rhAxl-Fc; R&D Systems, Cat. no. 154-AL) (human) (UniProt P30530); test: SPR two-injection competition on immobilised Axl-Fc; second injection, competitor bound first: Gas6
[20] = target: recombinant human Axl-Fc chimera (rhAxl-Fc; R&D Systems, Cat. no. 154-AL) (human) (UniProt P30530); test: SPR two-injection competition on immobilised Axl-Fc; second injection, competitor bound first: H2L1
[21] = target: recombinant human Axl-Fc chimera (rhAxl-Fc; R&D Systems, Cat. no. 154-AL) (human) (UniProt P30530); test: SPR two-injection competition on immobilised Axl-Fc; response expected for the second sample (first: Gas6)
[22] = target: recombinant human Axl-Fc chimera (rhAxl-Fc; R&D Systems, Cat. no. 154-AL) (human) (UniProt P30530); test: SPR two-injection competition on immobilised Axl-Fc; response expected for the second sample (first: H2L1)

B1: chimeric 1H12 anti-Axl antibody (antibody, from another filing, V domains shown)
VH: EVQLVESGGDLVKPGGSLKLSCAASGFTFSSYGMSWVRQTPDKRLEWVATISSGGSYTYYPDSVKGRFTISRDNAKNTLYLQMSSLKSEDTAMYYCARHPIYYTYDDTMDYWGQGTSVTVSS
VL: ENVLTQSPAIMAASPGEKVTMTCSASSSVSSGNFHWYQQKPGTSPKLWIYRTSNLASGVPARFSGSGSGTSYSLTISSMEAEDAATYYCQQWSGYPWTFGGGTKLEIK
1st Response [1]: 400 and 220
2nd Response [2]: 180
2nd Response [3]: 400
Expected response if independent [4]: 220
Expected response if independent [5]: 400

B2: mouse monoclonal antibody 10G5 (antibody, V domains shown)
VH: QVQLQQSGAELVRPGASVKLSCKASGYSFTDFYINWVRQRPGQGLEWIARIFPGGDNTYYNEKFKGKATLTAEESSSTAYIQLSSLTSEDSAVYFCARRGLYYAMDYWGQGISVTVSS
VL: DVLMTQTPLSLPVSLGDQASISCRSSQSLVHSNGIPYLHWYLQKPGQSPKLLIYRVSNRFSGVPDRFSGSGSGTDFTLKISRVEAEDLGVYFCSQGTHVPPTFGGGTKLEIK
notes: Whole mouse IgG purified from hybridoma supernatant; also called murine 10G5; MAb 10G5
Half-life (t1/2) [6]: 26.3 min
Half-life (t1/2) [7]: 26.3 min
Kd [7]: 0.53 nM
koff [7]: 0.000439 s⁻¹
kon [7]: 829000 M⁻¹ s⁻¹
Kd [8]: 0.53 nM
koff [9]: 0.000439 s⁻¹
kon [9]: 829000 M⁻¹ s⁻¹
binding result [10]: binds
binding result [11]: no binding (tested: 10 µg/mL)
binding result [12]: no binding (tested: 10 µg/mL)

B3: humanised 10G5 antibody H1L1 (antibody, human IgG1, kappa, V domains shown)
VH: EVQLVQSGAGLVQPGGSVRLSCAASGYSFTDFYINWVRQAPGKGLEWIARIFPGGDNTYYNEKFKGRFTLSADTSSSTAYLQLNSLRAEDTAVYYCARRGLYYAMDYWGQGTLVTVSS
VL: DIQMTQSPSSLSASVGDRVTITCRSSQSLVHSNGIPYLHWYQQKPGKAPKLLIYRVSNRFSGVPSRFSGSGSGTDFTLTISSLQPEDFATYYCSQGTHVPPTFGQGTKVEIKR
notes: H1L1 is read as GH1 heavy chain + GL1 light chain; also called hu10G5 H1L1
EC50 (pM), killing of MDA-MB-231 cells by antibody coupled to Saporin (FabFc-ZAP), XTT/PMS viability after 72 hrs [13]: 3.44 pM
EC50 (pM), tumour cell killing by antibody-Saporin conjugates, as in Example 20 [14]: 17.1 pM
Half-life (t1/2) [15]: 71.7 min
Kd [16]: 0.105 nM
koff [16]: 0.000161 s⁻¹
kon [16]: 1.54e+06 M⁻¹ s⁻¹
EC50 (read off the curve) [17]: ~0.1 nM
Kd [18]: 0.12 nM

B4: humanised 10G5 antibody H2L1 (antibody, human IgG1, kappa, V domains shown)
VH: B3 VH with Q6E, A9G, V18L, I48V, S76K, L83M
VL: B3 VL
notes: H2L1 is read as GH2 heavy chain + GL1 light chain; also called hu10G5 H2L1; Hu10G5 (H2L1)
EC50 (pM), killing of MDA-MB-231 cells by antibody coupled to Saporin (FabFc-ZAP), XTT/PMS viability after 72 hrs [13]: 2.68 pM
EC50 (pM), tumour cell killing by antibody-Saporin conjugates, as in Example 20 [14]: 2.66 pM
Half-life (t1/2) [15]: 81.4 min
1st Response [1]: 323
Kd [16]: 0.0686 nM
koff [16]: 0.000142 s⁻¹
kon [16]: 2.07e+06 M⁻¹ s⁻¹
2nd Response [19]: 301
2nd Response [20]: 8.9
EC50 (read off the curve) [17]: ~0.2 nM
Expected response if independent [21]: 318
Expected response if independent [22]: 323
Kd [18]: 0.192 nM
